# Source: patent US20160264664A1 (Ablynx, published 2016)
# Changes are numbered by the printed parent chain.
# T1: mouse P2X7 (mouse, UniProt Q9Z1M0 1-595)
# T1 construct: on transfected CHO or Hek293 cells, or endogenous on Yac-1 cells; also called mP2X7; mouse purinoceptor P2X7
# T1 sequence: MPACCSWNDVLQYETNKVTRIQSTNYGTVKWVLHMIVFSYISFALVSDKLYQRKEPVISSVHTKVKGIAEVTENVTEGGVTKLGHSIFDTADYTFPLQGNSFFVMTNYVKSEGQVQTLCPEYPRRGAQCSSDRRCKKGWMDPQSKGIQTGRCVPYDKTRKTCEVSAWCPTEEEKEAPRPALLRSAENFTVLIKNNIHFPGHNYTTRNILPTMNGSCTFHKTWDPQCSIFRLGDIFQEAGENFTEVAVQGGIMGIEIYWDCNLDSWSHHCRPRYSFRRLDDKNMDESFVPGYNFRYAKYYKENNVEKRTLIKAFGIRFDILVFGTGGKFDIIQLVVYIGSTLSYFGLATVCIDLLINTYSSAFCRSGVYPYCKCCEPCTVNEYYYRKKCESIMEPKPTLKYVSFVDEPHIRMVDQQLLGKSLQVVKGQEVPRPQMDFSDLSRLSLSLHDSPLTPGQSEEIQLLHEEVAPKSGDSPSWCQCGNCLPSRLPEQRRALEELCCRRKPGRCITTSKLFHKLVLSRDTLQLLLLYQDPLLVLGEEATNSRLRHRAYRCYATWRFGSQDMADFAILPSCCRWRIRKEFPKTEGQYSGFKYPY
# T2: human P2X7 (human, UniProt Q99572 1-595)
# T2 construct: on transfected Hek293 cells; also called hP2X7
# T2 sequence: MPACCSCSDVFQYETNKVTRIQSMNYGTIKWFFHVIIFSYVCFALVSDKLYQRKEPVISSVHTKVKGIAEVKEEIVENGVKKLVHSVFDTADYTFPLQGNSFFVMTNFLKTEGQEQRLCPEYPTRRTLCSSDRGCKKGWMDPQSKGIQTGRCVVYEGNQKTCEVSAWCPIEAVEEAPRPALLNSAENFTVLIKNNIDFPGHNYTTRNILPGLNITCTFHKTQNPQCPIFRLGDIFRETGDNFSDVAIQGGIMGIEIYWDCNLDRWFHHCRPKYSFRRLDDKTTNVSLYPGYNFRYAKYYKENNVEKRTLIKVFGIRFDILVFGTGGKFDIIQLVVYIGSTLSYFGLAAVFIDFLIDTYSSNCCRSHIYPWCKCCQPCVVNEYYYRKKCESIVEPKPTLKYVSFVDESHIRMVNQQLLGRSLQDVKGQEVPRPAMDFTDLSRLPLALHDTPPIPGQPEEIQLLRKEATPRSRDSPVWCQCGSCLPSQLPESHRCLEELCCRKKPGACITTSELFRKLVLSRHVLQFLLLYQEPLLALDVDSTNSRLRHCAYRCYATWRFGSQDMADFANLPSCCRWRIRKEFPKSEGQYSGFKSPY
# T3: human P2X4 (human, UniProt Q99571 1-388)
# T3 construct: whole, on cells; also called hP2X4
# T3 sequence (looked up): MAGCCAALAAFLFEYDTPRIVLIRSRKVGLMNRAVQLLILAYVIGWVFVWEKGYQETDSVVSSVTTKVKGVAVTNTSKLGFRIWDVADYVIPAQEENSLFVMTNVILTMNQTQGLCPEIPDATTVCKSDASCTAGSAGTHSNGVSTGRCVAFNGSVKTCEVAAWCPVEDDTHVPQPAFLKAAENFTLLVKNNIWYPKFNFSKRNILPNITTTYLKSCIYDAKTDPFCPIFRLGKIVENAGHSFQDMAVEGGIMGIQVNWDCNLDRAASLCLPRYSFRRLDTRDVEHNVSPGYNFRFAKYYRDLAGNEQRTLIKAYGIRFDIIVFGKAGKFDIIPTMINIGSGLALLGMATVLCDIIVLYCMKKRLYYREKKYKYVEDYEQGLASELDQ
# B1: P2X7PMP1G6 (VHH)
# VHH: EVQLVESGGGLVQAGGSLRLSCAASPGAFSSFNMGWFRQTPGKEREFVAATSWSDISTYYADSVKGRFTISRDNAKNTVTLEMNSLKPEDTAVYYCAAGYYRGGYLGYRLTLEGSYDVWGQGTQVTVSS
# notes: family 15; on phage or c-myc/His6-tagged in assays
# B2: P2X7PMP16D9 (VHH)
# VHH: B1 VHH with A28T
# notes: as for B1
# B3: P2X7PMP18C1 (VHH)
# VHH: EVQLVESGGDLVQPGGSLRLSCVASGFALEEHAIGWFRQAPGKEREGVSLSSYLGAAYYATSVKGRFTISRDNAKNTVTLQMNSLKPEDTAVYYCARGHFTYDDGRITIRSVDYWGKGTLVTVSS
# notes: family 25; on phage or c-myc/His6-tagged in assays
# B4: P2X7PMP18A7 (VHH)
# VHH: B3 VHH with L54V, A57V, T79Y, T108S, Y114H
# notes: as for B3
# B5: P2X7PMP1A8 (VHH)
# VHH: EVQLVESGGGLVQTGGSLRLSCAASGFTLDDYAIAWFRQAPGKEREGVSILSSIGKTFYADSVKDRFSITADGAKTTVFLQMNSLKPGDTAIYYCVAGHFVYNDGAISLNTARGSGFWGQGAQVTVSS
# notes: family 2; on phage or c-myc/His6-tagged in assays
# B6: P2X7PMP1C9 (VHH)
# VHH: B5 VHH with G88E
# notes: as for B5
# B7: P2X7PMP20C9 (VHH)
# VHH: B5 VHH with V63A, G88E, A122T
# notes: as for B5
# B8: P2X7PMP20B10 (VHH)
# VHH: B5 VHH with G88E, A122T
# notes: as for B5
# B9: P2X7PMP8F5 (VHH)
# VHH: EVQLVKSGGGLVQAGGSLRLSCAASGSFFRVNNMAWYRQAPGKQRELVADITRGDRTNYADSVNGRFTISRDNVRNTVYLQMNGLKPEDTAVYYCYARIELGPLVPRDYWGQGTQVTVSS
# notes: family 5, 2; on phage or c-myc/His6-tagged in assays
# B10: P2X7PMP6A11 (VHH)
# VHH: B9 VHH with K6E, S27N, N33T, S62T, V92A, P103V, V105E
# notes: as for B9
# B11: P2X7PMP8C12 (VHH)
# VHH: B9 VHH with K6E, R98T, P103V, V105E
# notes: family 5, 3; on phage or c-myc/His6-tagged in assays
# B12: P2X7PMP8H5 (VHH)
# VHH: B9 VHH with V2M, K6E, S27N, N33T, S62T, V92A, P103V, V105E
# notes: as for B9
# B13: P2X7PMP8D10 (VHH)
# VHH: B9 VHH with K6E, A14P, R98T, P103V, V105E
# notes: as for B11
# B14: P2X7PMP8B12 (VHH)
# VHH: B9 VHH with K6E, N33V, A40G, R98T, P103V, V105E
# notes: as for B11
# B15: P2X7PMP8H6 (VHH)
# VHH: B9 VHH with K6E
# notes: as for B9
# B16: P2X7PMP8H10 (VHH)
# VHH: B9 VHH with K6E, A40G, R98T, P103V, V105E
# notes: as for B11
# B17: P2X7PMP8H4 (VHH)
# VHH: B9 VHH with K6E, A40G, N83D, R98T, P103V
# notes: as for B11
# B18: P2X7PMP8A11 (VHH)
# VHH: B9 VHH with K6E, N83D, P103V
# notes: as for B9
# B19: P2X7PMP8E6 (VHH)
# VHH: B9 VHH with K6E, S17P, S27N, N33T, S62T, V92A, P103V, V105E
# notes: as for B9
# B20: P2X7PMP8B4 (VHH)
# VHH: B9 VHH with K6E, S27N, N33T, S62T, G84S, V92A, P103V, V105E
# notes: as for B9
# B21: P2X7PMP4G6 (VHH)
# VHH: EVQLVESGGDVVQAGGSLRLSCLASGFTFDDYAIGWFRQAPGKEREGISCISSTGNVFYADSVKGRFTISSDKEKNTLYLQMNSLKPEDTAVYHCAAGHFTVDSGKVLLRTDVSSWGQGTQVTVSS
# notes: family 1; on phage or c-myc/His6-tagged in assays
# B22: P2X7PMP16H8 (VHH)
# VHH: B21 VHH with F67L, V113I
# notes: as for B21
# B23: P2X7PMP20E8 (VHH)
# VHH: B21 VHH with E88G, V113I
# notes: as for B21
# B24: P2X7PMP5F1 (VHH)
# VHH: EVQLVESGGGLVQAGGSLRLSCAASERTYSMGWFRQAPGKEREFVAGSGWDGIPTRYADSVKGRFTISRDNAKNTVSLQMSGLKPEDTAIYYCATGTSVYHYQYWGQGTQVTVSS
# notes: family 3; on phage or c-myc/His6-tagged in assays
# Target: T1, mouse P2X7
# Test: flow cytometry, periplasmic extract pre-incubated with anti-myc-FITC, on mP2X7-Hek293 cells;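 further: periplasmic extract diluted 10-fold and premixed 45 min at 4 °C with FITC anti-myc antibody, giving pseudo-bivalent Nanobodies, before binding to the cells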
# Procedure: Ten-fold diluted PE were pre-incubation with 0.5 μg anti-myc FITC-conjugated antibodies (AbD Serotec, cat no. MCA2200F) (creating pseudo-bivalent Nanobodies in order to increase binding strength) in 0.1 ml PBS/10% FCS for 45 minutes at 4° C. […] Alternatively, sequential staining of 10-fold diluted PE with anti-myc FITC-conjugated antibodies was done after incubation with the cells.
row,Binder,MFI FACS (pre-Myc incubation) [MFI]
1,B1,11
2,B2,53
3,B3,63
4,B4,69
5,B5,18
6,B6,19
7,B7,97
8,B8,85
9,B9,143
10,B10,53
11,B11,89
12,B12,24
13,B13,94
14,B14,93
15,B15,43
16,B16,94
17,B17,65
18,B18,17
19,B19,69
20,B20,71

# Target: T1, mouse P2X7
# Test: Table A-1 'P2X7 function'; screening on mP2X7-expressing cells
row,Binder,binding result
1,B21,binds
2,B22,binds
3,B23,binds
4,B24,binds

# Target: T2, human P2X7
# Test: flow cytometry, Nanobody pre-incubated with anti-Myc-FITC
row,Binder,binding result
1,B1,no binding (tested: 147 nM)
2,B2,no binding (tested: 147 nM)
3,B3,no binding (tested: 147 nM)
4,B4,no binding (tested: 147 nM)
5,B5,no binding (tested: 147 nM)
6,B7,no binding (tested: 147 nM)
7,B9,no binding (tested: 147 nM)

# Target: T3, human P2X4
# Test: as above
row,Binder,binding result
1,B1,no binding (tested: 147 nM)
2,B2,no binding (tested: 147 nM)
3,B3,no binding (tested: 147 nM)
4,B4,no binding (tested: 147 nM)
5,B5,no binding (tested: 147 nM)
6,B7,no binding (tested: 147 nM)
7,B9,no binding (tested: 147 nM)

# Target: T1, mouse P2X7
# Test: phage ELISA, mP2X7-CHO vs control CHO cells
# Procedure: (§1) Sub-confluent cells were rinsed with PBS and fixed using 4% paraformaldehyde in PBS for 10 minutes at RT. Fixed cells were washed three times with PBS, and blocked with 2% BSA in PBS for 2 hours. Following blocking, 10-fold diluted culture supernatant containing phage was added and incubated for 1 hour. Cell-bound phage was detected via mouse anti-M13-HRP-conjugate (GE Healthcare, Cat nr. E2886). Rat mAb Hano43 was used as positive control.
row,Binder,absorption ratio (ELISA) [ratio]
1,B1,12
2,B2,7
3,B3,18
4,B4,14
5,B5,21
6,B6,6
7,B7,11
8,B8,8
9,B9,16
10,B10,17
11,B11,28
12,B12,12
13,B13,18
14,B14,38
15,B15,17
16,B16,19
17,B17,27
18,B18,11
19,B19,12
20,B20,13

# Target: T1, mouse P2X7
# Test: phage ELISA on fixed mP2X7-CHO vs untransfected CHO cells;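 further: phage culture supernatant diluted 10-fold, applied for 1 h to paraformaldehyde-fixed, BSA-blocked cells in 96-well plates, with bound phage read via HRP-linked anti-M13 antibody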
# Procedure: as §1
row,Binder,Fold Cho P2X7/wt (phage ELISA) [fold]
1,B1,12
2,B2,7
3,B3,18
4,B4,14
5,B5,20
6,B7,11
7,B9,16

# Target: T1, mouse P2X7
# Test: cell-based or functional assay
Binder,"ATP IC50 by 2 uM NB (head prints 'mM'; ligand titration at fixed Nanobody, CD62L shedding, Yac-1 cells) [mM]","IC50 (nM) against 20 uM NAD (CD62L shedding, Yac-1 cells) [nM]","IC50 (nM) against 100 uM ATP (CD62L shedding, Yac-1 cells) [nM]"
B9,0.171,579,350
